Measurements: patent US20160096891A1 (AstraZeneca / MedImmune, published 2016)

T1: human B7-H5 expressed on cells (CHO transfectants) (human, UniProt Q9UM44 23-414)
T1 construct: also called B7-H7; HHLA2
T1 sequence: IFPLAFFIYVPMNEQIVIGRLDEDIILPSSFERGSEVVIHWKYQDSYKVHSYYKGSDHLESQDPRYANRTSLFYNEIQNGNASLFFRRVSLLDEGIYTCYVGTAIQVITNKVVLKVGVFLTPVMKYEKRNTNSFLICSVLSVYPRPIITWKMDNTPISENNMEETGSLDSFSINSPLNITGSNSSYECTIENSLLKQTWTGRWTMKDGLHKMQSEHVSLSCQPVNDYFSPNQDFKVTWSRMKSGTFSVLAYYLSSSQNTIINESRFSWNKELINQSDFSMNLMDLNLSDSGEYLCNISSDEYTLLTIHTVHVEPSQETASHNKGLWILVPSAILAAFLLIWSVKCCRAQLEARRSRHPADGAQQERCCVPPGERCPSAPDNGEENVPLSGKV

T2: human B7-H5 expressed on cells (CHO transfectants) (UniProt Q9UM44 23-414)
T2 chain: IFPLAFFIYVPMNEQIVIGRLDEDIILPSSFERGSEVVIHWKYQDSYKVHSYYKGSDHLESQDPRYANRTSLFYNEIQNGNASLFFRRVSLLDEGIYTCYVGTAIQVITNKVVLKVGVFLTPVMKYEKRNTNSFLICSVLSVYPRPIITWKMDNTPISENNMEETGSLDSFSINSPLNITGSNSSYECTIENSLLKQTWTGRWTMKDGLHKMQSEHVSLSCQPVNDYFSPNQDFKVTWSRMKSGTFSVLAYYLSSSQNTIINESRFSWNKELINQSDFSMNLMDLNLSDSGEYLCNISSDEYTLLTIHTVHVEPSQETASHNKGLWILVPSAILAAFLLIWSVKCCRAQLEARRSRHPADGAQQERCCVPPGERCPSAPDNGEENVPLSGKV


Legend:
[1] = biological target: T1, human B7-H5 expressed on cells (CHO …); assay: flow cytometry on CHO transfectants expressing human B7-H5
[2] = biological target: T2, human B7-H5 expressed on cells (CHO …); assay: FACS binding to CHO cells
[3] = biological target: T1, human B7-H5 expressed on cells (CHO …); assay: flow cytometry on CHO cells expressing human B7-H5 (figure legend)
Procedure: Human B7-H5 FL CHO transfectants were pre-incubated with control supernatant (Panel A) or recombinant chimeric 2D3 (Panel B) and 18C3 supernatants (Panel C), and subsequently stained with biotinylated CD28HhIg fusion protein.
The human B7-H5-binding antibodies of the present invention (antibodies 2D3 and 18C3) were recombinantly converted to a human IgG4P isotype from their native hamster isotype. CHO transfectants that express human B7-H5 were then incubated in the presence of the recombinant antibodies. […] FIG. 15 compares the affinities of antibodies 2D3 and 18C3 for binding to human B7-H5 as expressed on the surface of CHO cells.

Row | binding result [1] | Kd [2] [nM] | binding result [3] | Binder
1 | binds | ~3.8 |  | anti-human B7-H5 antibody 18C3 (hybridoma clone 18C3) (antibody, V domains shown, constant regions are not; also called Anti-Human B7-H5 Clone 18C3) VH: QVQLQQSGAELVKPGASVKLSCKASGYTFTSHDINWVRQRPEQGLEWIGWIFPGDGSTKFNEKFKGKATLTTDKSSSTAYIQLSRLTSEDSAVYFCARNSFYSMDYWGQGTSVTVSS VL: DIVMSQSPSSLAVSAGEKVTMSCKSSQSLLNSRTRKNQLAWYQQKPGQSPKLLIYWASTRESGVPDRFTGSGSGTDFTLTISSVQAEDLAVYYCKQSYNLRTFGGGTKLEIK
2 |  |  | binds | recombinant anti-human B7-H5 chimeric antibody 18C3, human IgG4P isotype (antibody, V domains shown, also called recombinant chimeric 18C3; human IgG4P derivative of 18C3) VH: QVQLQQSGAELVKPGASVKLSCKASGYTFTSHDINWVRQRPEQGLEWIGWIFPGDGSTKFNEKFKGKATLTTDKSSSTAYIQLSRLTSEDSAVYFCARNSFYSMDYWGQGTSVTVSS VL: DIVMSQSPSSLAVSAGEKVTMSCKSSQSLLNSRTRKNQLAWYQQKPGQSPKLLIYWASTRESGVPDRFTGSGSGTDFTLTISSVQAEDLAVYYCKQSYNLRTFGGGTKLEIK

The remaining lines, values behind:

Row | Binder | binding result [1] | Kd [2] [nM] | binding result [3]
3 | anti-human B7-H5 antibody 2D3 (hybridoma clone 2D3) (antibody, V domains shown, constant regions are not; also called Anti-Human B7-H5 Clone 2D3; 2D3 mAb) VH: QVQLQQSGAELVKPGASVKLSCKASGYTFTSHDINWVRQRPELGLEWIGWIFPGDGSTKFNEKFKGKATLTTDKSSSTAYIQLSRLTSEDSAVYFCARNSFYSMDYWGQGTSVTVSS VL: DIVMSQSPSSLAVSAGEKVTMSCKSSQSLLNSRTRKNQLAWYQQKPGQSPKLLIYWAFIRESGVPDRFTGSGSGTDFTLTISSVQAEDLAVYYCKQSYNLRTFGGGTKLEIK | binds | ~2.5 | 
4 | recombinant anti-human B7-H5 chimeric antibody 2D3, human IgG4P isotype (antibody, V domains shown, also called recombinant chimeric 2D3; human IgG4P derivative of 2D3) VH: QVQLQQSGAELVKPGASVKLSCKASGYTFTSHDINWVRQRPELGLEWIGWIFPGDGSTKFNEKFKGKATLTTDKSSSTAYIQLSRLTSEDSAVYFCARNSFYSMDYWGQGTSVTVSS VL: DIVMSQSPSSLAVSAGEKVTMSCKSSQSLLNSRTRKNQLAWYQQKPGQSPKLLIYWAFIRESGVPDRFTGSGSGTDFTLTISSVQAEDLAVYYCKQSYNLRTFGGGTKLEIK |  |  | binds
